Data taken from patent US9605038B2, “Fusion peptide comprising dhFas-1 domain and MMP substrate and use thereof for preventing and treating rheumatoid arthritis” (Kyungpook National University Industry-Academic Cooperation …, priority 2010, dated 2017).
Residue numbers refer to the chain shown, from its start.

B1: MFK23: fusion peptide having sequential links of mdhFas-1, MMP2 substrate GPLGVRG (SEQ ID NO: 5), and QERGDSLA (SEQ ID NO: 10) (protein)
chain: QAMPPEELNKLLANAKELTNILKYHIGDEILVSGGIGALVRLKSLQGDKLEVSSKNNVVSVNKEPVAETDIMEFGPLGVRGVDGQERGDSLAGLE
modifications: MFK23
B2: MFK24: fusion peptide having sequential links of mdhFas-1, MMP1 substrate GPQGIAG (SEQ ID NO: 6), and QERGDSLA (SEQ ID NO: 10) (protein)
chain: B1 chain with L77Q, V79I, R80A
modifications: MFK24

Legend:
cathepsin D = cathepsin D (Homo sapiens, UniProt P07339); assay: Enzymatic digestion test, cathepsin D; assay type: biochemical; conditions: 3 ug peptide, cathepsin D 5, 10, 50 ng, 37° C. 4 hours
cathepsin D, sequence (P07339 65-412, species assumed): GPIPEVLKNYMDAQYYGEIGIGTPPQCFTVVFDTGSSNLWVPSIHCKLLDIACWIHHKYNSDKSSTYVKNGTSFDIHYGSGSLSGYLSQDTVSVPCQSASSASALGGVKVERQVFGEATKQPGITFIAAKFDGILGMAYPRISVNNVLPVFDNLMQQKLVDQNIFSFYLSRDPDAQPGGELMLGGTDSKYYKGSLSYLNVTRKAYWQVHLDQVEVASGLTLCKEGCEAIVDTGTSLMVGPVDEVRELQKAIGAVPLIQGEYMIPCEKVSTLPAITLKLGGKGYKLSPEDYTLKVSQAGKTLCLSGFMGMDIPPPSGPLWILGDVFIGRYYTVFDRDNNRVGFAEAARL
Method: 3 ug of synthesized mdhFas-1-MMPsubstrate structure modified protein, together with MMP1 (5 ng, 10 ng and 50 ng), MMP2 (100 ng, 200 ng and 800 ng), MMP3 (10 ng, 50 ng and 100 ng), cathepsin D (5 ng, 10 ng and 50 ng), cathepsin L (100 ng, 200 ng and 800 ng), and cathepsin K (10 ng, 50 ng and 100 ng), was mixed with enzyme buffer (150 mM NaCl, 5 mM. CaCl2, 20 mM Tris-HCl pH7.5), and reacted at 37° C. for 4 hours. The resultant product was subjected to electrophoresis through 15% polyacrylamide gel, transferred to a Nitrocellulose Membrane (Schleicher & Schuell), blocked at room temperature for 1 hour with TBST solution containing 3% BSA (20 mmole/L Tris-HCl, 137 mmole//l NaCl, 0.1% Tween-20), washed TBST solution three times (each for 10 minutes), and reacted with primary antibody (anti-Histidine or anti-Bigh3) for 1 hour. The resultant product was washed with TBST solution three times (each for 10 minutes), reacted with a secondary antibody conjugated to horseradish peroxidase (HRP) for 1 hour, washed TBST solution three times (each for 10 minutes), and visualized by ECL (Amersham Biosciences, UK) so as to detect the change in the amount of mdhFas-1-MMPsubstrate-RGD structural peptide.

[1] = test system: TNF-a, RANKL, IL-1β, CCL-2, MMP-1, MMP-3, IL-6, VCAM-1; assay: Semiquantitative reverse transcription PCR of inflammatory mediators in CIA mouse foot tissue; assay type: in vivo; conditions: CIA mouse articulation tissue, FIG. 21
Method: The distribution of inflammation in the foot tissue may be somewhat differently observed according to the regions, and its quantitative research is difficult. Thus, in the hind leg of a mouse CIA model treated with MFK24, the change in inflammatory mediators according to the onset of arthritis was measured by a semiquantitative reverse transcription PCR method using a Taqman probe, as described below.
From a mouse CIA model, a foot tissue was separated, and its skin was removed. The remaining tissue was grinded by a tissue homogenizer, and an extraction reagent (Easy-spim™, Intron) was used to extract all RNAs. They were quantified, and for 7 μg of RNA, a reverse transcriptase reaction was carried out by using AMV reverse transcriptase (Roche, 0.5 ul), oligo dT (Roche, 1 ul), and 10 mM dNTP (Takara, 2 ul) RNase inhibitor (Roche, 0.1 ul). For TNF-a, RANKL, IL-1β, CCL-2, MMP-1, MMP-3, IL-6, VCAM-1 and 18S RNA of a mouse, semiquantitative PCR was performed by using primers (Bioneer, Daejeon) and a Taqman probe (Roche, Germany) in LC480 (Roche, Germany), so as to determine the number of transcripts. Quantitative analysis of the transcripts was performed through comparison with 18S RNA transcripts. The primer pairs for the semiquantitative PCR are noted in [table8].

[2] = target: T1, MMP-1 secreted from a human Synovial membrane cell (Homo sapiens, UniProt P03956); assay: Culture analysis of enzymatic digestion in IL-1β stimulated human FLS; assay type: cell-based; conditions: 1 uM peptide, 3 and 6 hours, IL-1β 0.1 ng/ml
T1 construct: MFK24 peptide cleaved by MMP-1 secreted from a human Synovial membrane cell; endogenous in cells; host or cells: human fibroblast-like synoviocytes (human synovial membrane cell line) stimulated with 0.1 ng/ml IL-1β
T1 sequence (P03956 100-469): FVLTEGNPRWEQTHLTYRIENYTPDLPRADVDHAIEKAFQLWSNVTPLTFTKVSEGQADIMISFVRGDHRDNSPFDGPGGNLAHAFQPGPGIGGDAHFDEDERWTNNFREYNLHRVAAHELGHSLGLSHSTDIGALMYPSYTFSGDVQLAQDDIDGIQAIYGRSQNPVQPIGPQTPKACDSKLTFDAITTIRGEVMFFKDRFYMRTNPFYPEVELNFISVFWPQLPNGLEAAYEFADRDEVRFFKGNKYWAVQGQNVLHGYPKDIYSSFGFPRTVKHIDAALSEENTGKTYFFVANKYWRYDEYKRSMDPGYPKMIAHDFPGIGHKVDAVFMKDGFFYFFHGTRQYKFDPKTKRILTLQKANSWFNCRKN
Method: In order to determine if MFK24 is well adhered to cells and in actuality cleaved by MMP-1, human FLS (fibroblast-like synovicyte) was treated with IL-1β so as to amplify the expression of MMP-1. Then, MFK24 was added in a culture medium and cultured.
In a culture medium of DMEM+10% FBS (fetal bovine serum)+2% penicillin, streptomycin, a human Synovial membrane cell line was cultured for 2 days, added with 0.1 ng/ml IL-1β, and stimulated for 24 hours. The cell line was treated with mdhFas-1-MMPsubstrate-RGD structural peptide (1 uM), and stimulated for 3 hours and 6 hours. Then, by using an anti-βig-h3 antibody recognizing mdhfas-1, and an anti-histidine antibody recognizing C-terminal histidine-tag, the amount of peptide was determined.

ICAM-1 and RANKL = assay: Immunoblot of ICAM-1 and RANKL in CIA mouse model; assay type: in vivo

Row | Molecule | cleavage through treatment with cathepsin D (cathepsin D) | number of transcripts of inflammatory mediators compared to arthritis control group [1] | cleavage in FLS culture (anti-histidine vs anti-βig-h3) [2] | efficacy on ICAM-1 and RANKL expression at low dose (ICAM-1 and RANKL; 0.1 mg/kg) | expression of ICAM-1 and RANKL in the inflammatory region (ICAM-1 and RANKL; according to doses, FIG. 22)
1 | B1 | not cleaved |  |  |  | 
2 | B2 | not cleaved | significantly reduced | cleaved by MMP-1 secreted from a Synovial membrane cell | the high efficacy was maintained | reduced
